Assay results published in patent US20100322938A1 (COMPUGEN, published 2010).

Target: T1, CGEN-CL1 peptide FYFWMNGDRIDSLLENDRQQT [SEQ ID NO: 1] (human, acetylated at its N-terminus; amidated at its C-terminus)
T1 construct: Made by solid-phase synthesis (Pepscan); molecular weight 2690.1
T1 peptide: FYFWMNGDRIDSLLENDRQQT
Experiment: SPR competition (BIAcore), peptides preincubated 30 min at 10 uM each, injected over immobilized clusterin
Method: Peptide-protein interaction was analyzed using surface plasmon resonance. Analysis of the interaction between CGEN-CL1 [SEQ ID NO:1] and recombinant human clusterin (Biovendor, Modrice, Czech republic cat no: RD172034100) was conducted using the BIAcore biosensor (Pharmacia Biosensor, Uppsala, Sweden). Clusterin was immobilized directly to a CM5 sensor chip (2000 resonance units (RU)). Solution containing either 10 μM of CGEN-CL1 [SEQ ID NO:1] peptide or a mixture of CGEN-CL1 and its partner helix (SEQ ID NO:5), 10 μM each, preincubated for 30 minutes at room temperature, was injected to the BIAcore. As a background, the solutions were also injected onto an empty flow cell with no immobilized ligand and the binding levels achieved were subtracted. Data was analyzed using BIAevaluation software.

B1: partner helix peptide RLTRKYNELLKSYQWKMLNTSS [SEQ ID NO: 5] (peptide)
peptide: Ac-RLTRKYNELLKSYQWKMLNTSS-NH2
notes: Made by solid-phase synthesis (Pepscan); molecular weight 2760.2; also called helix partner; counterpart helix peptide
**Q.** Does B1 bind?
**A.** binds
